Assay results published in PMC6661058.

Target: T1, CepR (His-tagged response regulator) (Streptomyces clavuligerus F613-1) (UniProt E2PWN2)
T1 sequence: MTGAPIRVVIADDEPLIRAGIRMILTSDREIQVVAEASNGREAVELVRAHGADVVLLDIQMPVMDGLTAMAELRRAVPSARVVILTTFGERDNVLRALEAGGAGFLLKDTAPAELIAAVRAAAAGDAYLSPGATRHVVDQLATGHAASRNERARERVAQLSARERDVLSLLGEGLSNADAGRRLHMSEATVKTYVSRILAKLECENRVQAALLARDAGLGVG
Test: EMSA
Settings: EMSA with 0.5-3.0 ug His-CepR and 1.0 ug poly(dI-dC); buffer, salt, pH and temperature not given (as in Fu et al. 2019; Zhang et al. 2015)

ATGGTCGTCCGATCGCCGCACGATCACTGATCAAGCCCTGCCCCACCCCGGCGCAAAAATTATCCGCCGGGTCATCACGCGTCATCACCACGTAATTCGGGACGGGAATACCCTGCCGCATTCCCGCCGGGGCGGCCCGGTGGGGCGGCTCCCCTCCCGCAGGCGCGGCGGTGCCCGTCGCACACTCAAGGAAGAGGGCAATGAACGA (double strand) [cefD-cmcI intergenic P1]
binding: no binding
